Laboratory results taken from publication PMC7763554, “The Two-Component System CopRS Maintains Subfemtomolar Levels of Free Copper in the Periplasm of Pseudomonas aeruginosa Using a Phosphatase-Based Mechanism” (mSphere, 2020).

Target: the molecule itself
Assay: SDS-PAGE; 10 ug of purified protein on 8 to 16% gradient SDS-PAGE, Coomassie blue G250; monomer and dimer bands with expected masses of 19 and 38 kDa

B1: His-tagged CopS(34-151), periplasmic copper binding loop (sensor domain) of Pseudomonas aeruginosa CopS (domain or fragment, UniProt Q9I033 34-151, looked up)
chain: FSRAIDEHFVELDHMAMSAKLAVFRDELRGLGSEQQMRRREAELLRELARHPDLGLRLNGPDGNLWFERLPQPAHPGLPANRELGAPLEPGNDASPRLTVILDISHHQHFLQRMRQLI
notes: CopS, sensor histidine kinase of the two-component system CopRS, Pseudomonas aeruginosa PAO1; periplasmic sensor domain, residues 34-151, amplified from genomic DNA; The His6 tag is joined by a TEV cleavage site, and the tag was not cleaved; The expected monomer mass is printed as 19 kDa, which is more than residues 34-151 plus the tag would give, so the pBAD-topo vector may add residues …
With B1 the “stoichiometry N” value was 2.
